Source: the supplement of paper PMC10065799, “High-throughput profiling of sequence recognition by tyrosine kinases and SH2 domains using bacterial peptide display” (eLife, 2023)

Target: Grb2 SH2 (UniProt P62993)
Test: SH2 binding enrichment of the phosphorylated peptide, bacterial display (enrichment ratio); higher = better substrate or ligand; peptides without Tyr show the background
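Throughout, for SH2 binding enrichment of the phosphorylated peptide, bacterial display: peptide library displayed on the E. coli surface as eCPX fusions, selected cells deep-sequenced, score is each peptide's frequency after selection divided by its frequency in the input.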
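Throughout, for phosphorylation enrichment, bacterial display: 11-residue human phosphosite peptides and single-mutation variants displayed on the E. coli surface, counted by deep sequencing, each peptide's frequency after selection divided by its frequency in the unselected input library; frequency after pTyr selection over input frequency; kinase dosed for 20-30% of maximal phosphorylation in three min.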

Sequence of Grb2 SH2 (P62993 whole entry, looked up): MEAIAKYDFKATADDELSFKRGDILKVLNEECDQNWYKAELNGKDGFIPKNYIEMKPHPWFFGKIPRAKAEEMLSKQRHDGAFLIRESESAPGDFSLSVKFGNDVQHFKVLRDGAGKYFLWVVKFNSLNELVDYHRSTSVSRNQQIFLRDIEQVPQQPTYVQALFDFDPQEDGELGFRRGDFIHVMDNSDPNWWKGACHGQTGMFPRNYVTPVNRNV

Sequence	SH2 binding enrichment
CVAARYMDVKG [WFIKKN2_Y93]	0.784
KSIQLYDTPYE [SHB_Y297_G293S]	1.02
LVSCAYQMARG [FGFR1_Y605_V607M]	0.731
LNFNEYFRDLN [HPRT1_Y198_D194N_YF]	1.11
FMRGMYFRMTD [PLA2G6_Y541_K545T_YF]	0.941
HRFAAYFQQGD [GPI_Y351]	0.97
LNLKDYNLVGG [GNAQ_Y356_E355D]	0.873
FDNPVYQKTTE [LDLR_Y828]	0.993
NHYKRYNLCAE [PTEN_Y68_I67R]	0.93
DFLEKYFKFGS [NNMT_Y24_YF]	0.764
DLLNSYIENEG [HSPA4L_Y600]	1.04
KLKRSYPSPDI [USP8_Y717_S718P]	0.773
RHFSSYSQMEN [PKP1_Y120_R116H]	0.991

Target: c-Src SH2
Test: as above

Sequence	SH2 binding enrichment
CVAARYMDVKG [WFIKKN2_Y93]	1.16
KSIQLYDTPYE [SHB_Y297_G293S]	4.1
LVSCAYQMARG [FGFR1_Y605_V607M]	0.661
LNFNEYFRDLN [HPRT1_Y198_D194N_YF]	0.608
FMRGMYFRMTD [PLA2G6_Y541_K545T_YF]	0.914
HRFAAYFQQGD [GPI_Y351]	0.662
LNLKDYNLVGG [GNAQ_Y356_E355D]	0.71
FDNPVYQKTTE [LDLR_Y828]	0.578
NHYKRYNLCAE [PTEN_Y68_I67R]	0.662
DFLEKYFKFGS [NNMT_Y24_YF]	0.579
DLLNSYIENEG [HSPA4L_Y600]	0.693
KLKRSYPSPDI [USP8_Y717_S718P]	0.378
RHFSSYSQMEN [PKP1_Y120_R116H]	2.71

Target: SHP2-C SH2
Test: as above

Sequence	SH2 binding enrichment
CVAARYMDVKG [WFIKKN2_Y93]	0.52
KSIQLYDTPYE [SHB_Y297_G293S]	0.626
LVSCAYQMARG [FGFR1_Y605_V607M]	0.9
LNFNEYFRDLN [HPRT1_Y198_D194N_YF]	0.955
FMRGMYFRMTD [PLA2G6_Y541_K545T_YF]	1.43
HRFAAYFQQGD [GPI_Y351]	0.77
LNLKDYNLVGG [GNAQ_Y356_E355D]	0.452
FDNPVYQKTTE [LDLR_Y828]	1.09
NHYKRYNLCAE [PTEN_Y68_I67R]	0.769
DFLEKYFKFGS [NNMT_Y24_YF]	0.386
DLLNSYIENEG [HSPA4L_Y600]	0.656
KLKRSYPSPDI [USP8_Y717_S718P]	0.723
RHFSSYSQMEN [PKP1_Y120_R116H]	0.991

Target: FGFR3 (UniProt P22607)
Sequence (P22607 whole entry, looked up): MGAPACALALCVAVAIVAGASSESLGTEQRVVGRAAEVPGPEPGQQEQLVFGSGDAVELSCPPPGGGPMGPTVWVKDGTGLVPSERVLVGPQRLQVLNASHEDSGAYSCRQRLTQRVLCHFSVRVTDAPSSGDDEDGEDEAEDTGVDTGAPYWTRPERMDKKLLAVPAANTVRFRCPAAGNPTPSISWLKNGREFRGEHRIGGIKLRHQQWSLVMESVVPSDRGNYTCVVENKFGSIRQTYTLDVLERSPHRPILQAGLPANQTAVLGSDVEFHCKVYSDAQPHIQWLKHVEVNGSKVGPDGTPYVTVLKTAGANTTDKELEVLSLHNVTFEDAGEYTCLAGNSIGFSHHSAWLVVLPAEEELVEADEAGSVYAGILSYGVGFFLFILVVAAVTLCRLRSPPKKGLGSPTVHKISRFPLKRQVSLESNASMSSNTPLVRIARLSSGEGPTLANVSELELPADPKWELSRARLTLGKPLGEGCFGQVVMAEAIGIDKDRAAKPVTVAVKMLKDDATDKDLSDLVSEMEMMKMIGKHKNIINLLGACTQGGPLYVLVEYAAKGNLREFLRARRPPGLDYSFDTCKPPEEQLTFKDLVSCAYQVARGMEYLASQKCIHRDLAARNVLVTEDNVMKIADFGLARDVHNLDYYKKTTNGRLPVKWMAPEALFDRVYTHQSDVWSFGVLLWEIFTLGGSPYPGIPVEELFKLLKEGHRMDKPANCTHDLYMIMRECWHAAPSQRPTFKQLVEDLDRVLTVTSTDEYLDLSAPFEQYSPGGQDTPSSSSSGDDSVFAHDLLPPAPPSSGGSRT
Test: phosphorylation enrichment, bacterial display (enrichment ratio); higher = better substrate or ligand; peptides without Tyr show the background

Sequence	phosphorylation enrichment
CVAARYMDVKG [WFIKKN2_Y93]	0.549
KSIQLYDTPYE [SHB_Y297_G293S]	0.643
LVSCAYQMARG [FGFR1_Y605_V607M]	0.882
LNFNEYFRDLN [HPRT1_Y198_D194N_YF]	0.803
FMRGMYFRMTD [PLA2G6_Y541_K545T_YF]	0.663
HRFAAYFQQGD [GPI_Y351]	0.897
LNLKDYNLVGG [GNAQ_Y356_E355D]	0.565
FDNPVYQKTTE [LDLR_Y828]	0.498
NHYKRYNLCAE [PTEN_Y68_I67R]	0.554
DFLEKYFKFGS [NNMT_Y24_YF]	0.826
DLLNSYIENEG [HSPA4L_Y600]	0.875
KLKRSYPSPDI [USP8_Y717_S718P]	0.411
RHFSSYSQMEN [PKP1_Y120_R116H]	0.688

Test system: AncSZ
Test: as above

Sequence	phosphorylation enrichment
CVAARYMDVKG [WFIKKN2_Y93]	0.655
KSIQLYDTPYE [SHB_Y297_G293S]	1.29
LVSCAYQMARG [FGFR1_Y605_V607M]	1.22
LNFNEYFRDLN [HPRT1_Y198_D194N_YF]	1.78
FMRGMYFRMTD [PLA2G6_Y541_K545T_YF]	1.09
HRFAAYFQQGD [GPI_Y351]	1.17
LNLKDYNLVGG [GNAQ_Y356_E355D]	0.582
FDNPVYQKTTE [LDLR_Y828]	0.737
NHYKRYNLCAE [PTEN_Y68_I67R]	0.74
DFLEKYFKFGS [NNMT_Y24_YF]	1.12
DLLNSYIENEG [HSPA4L_Y600]	0.996
KLKRSYPSPDI [USP8_Y717_S718P]	0.436
RHFSSYSQMEN [PKP1_Y120_R116H]	1.02

Target: MERTK (UniProt Q12866)
Sequence (Q12866 whole entry, looked up): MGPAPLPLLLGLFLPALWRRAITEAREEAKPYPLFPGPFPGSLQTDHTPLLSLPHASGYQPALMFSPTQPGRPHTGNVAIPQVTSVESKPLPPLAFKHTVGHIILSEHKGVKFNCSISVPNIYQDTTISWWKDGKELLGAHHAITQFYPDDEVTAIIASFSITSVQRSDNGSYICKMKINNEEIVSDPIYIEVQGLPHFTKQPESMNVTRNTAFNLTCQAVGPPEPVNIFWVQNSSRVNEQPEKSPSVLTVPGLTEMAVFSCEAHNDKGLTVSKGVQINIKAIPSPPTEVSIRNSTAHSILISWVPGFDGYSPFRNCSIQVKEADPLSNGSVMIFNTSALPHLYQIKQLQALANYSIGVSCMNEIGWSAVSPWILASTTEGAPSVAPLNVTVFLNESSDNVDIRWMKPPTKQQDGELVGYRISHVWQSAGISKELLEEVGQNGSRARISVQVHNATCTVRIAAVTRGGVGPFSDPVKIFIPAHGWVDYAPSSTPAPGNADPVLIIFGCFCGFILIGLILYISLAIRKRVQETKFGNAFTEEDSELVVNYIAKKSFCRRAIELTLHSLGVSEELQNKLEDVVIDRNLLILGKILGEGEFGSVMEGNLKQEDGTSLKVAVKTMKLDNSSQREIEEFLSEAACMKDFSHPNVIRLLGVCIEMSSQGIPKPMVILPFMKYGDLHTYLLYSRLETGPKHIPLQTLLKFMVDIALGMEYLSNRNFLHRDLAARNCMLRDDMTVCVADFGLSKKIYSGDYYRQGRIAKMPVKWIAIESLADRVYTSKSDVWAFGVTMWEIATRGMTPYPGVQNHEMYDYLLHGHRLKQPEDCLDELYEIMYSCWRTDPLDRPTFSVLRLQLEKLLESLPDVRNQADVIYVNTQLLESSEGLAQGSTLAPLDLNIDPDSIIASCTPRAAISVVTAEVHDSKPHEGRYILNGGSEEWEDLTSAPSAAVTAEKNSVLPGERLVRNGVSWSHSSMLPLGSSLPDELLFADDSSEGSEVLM
Test: as above

Sequence	phosphorylation enrichment
CVAARYMDVKG [WFIKKN2_Y93]	0.435
KSIQLYDTPYE [SHB_Y297_G293S]	4.79
LVSCAYQMARG [FGFR1_Y605_V607M]	0.489
LNFNEYFRDLN [HPRT1_Y198_D194N_YF]	0.972
FMRGMYFRMTD [PLA2G6_Y541_K545T_YF]	0.438
HRFAAYFQQGD [GPI_Y351]	0.643
LNLKDYNLVGG [GNAQ_Y356_E355D]	0.412
FDNPVYQKTTE [LDLR_Y828]	0.453
NHYKRYNLCAE [PTEN_Y68_I67R]	0.446
DFLEKYFKFGS [NNMT_Y24_YF]	0.564
DLLNSYIENEG [HSPA4L_Y600]	0.375
KLKRSYPSPDI [USP8_Y717_S718P]	0.467
RHFSSYSQMEN [PKP1_Y120_R116H]	0.562

Target: EPHB2 (UniProt P29323)
Sequence (P29323 whole entry, looked up): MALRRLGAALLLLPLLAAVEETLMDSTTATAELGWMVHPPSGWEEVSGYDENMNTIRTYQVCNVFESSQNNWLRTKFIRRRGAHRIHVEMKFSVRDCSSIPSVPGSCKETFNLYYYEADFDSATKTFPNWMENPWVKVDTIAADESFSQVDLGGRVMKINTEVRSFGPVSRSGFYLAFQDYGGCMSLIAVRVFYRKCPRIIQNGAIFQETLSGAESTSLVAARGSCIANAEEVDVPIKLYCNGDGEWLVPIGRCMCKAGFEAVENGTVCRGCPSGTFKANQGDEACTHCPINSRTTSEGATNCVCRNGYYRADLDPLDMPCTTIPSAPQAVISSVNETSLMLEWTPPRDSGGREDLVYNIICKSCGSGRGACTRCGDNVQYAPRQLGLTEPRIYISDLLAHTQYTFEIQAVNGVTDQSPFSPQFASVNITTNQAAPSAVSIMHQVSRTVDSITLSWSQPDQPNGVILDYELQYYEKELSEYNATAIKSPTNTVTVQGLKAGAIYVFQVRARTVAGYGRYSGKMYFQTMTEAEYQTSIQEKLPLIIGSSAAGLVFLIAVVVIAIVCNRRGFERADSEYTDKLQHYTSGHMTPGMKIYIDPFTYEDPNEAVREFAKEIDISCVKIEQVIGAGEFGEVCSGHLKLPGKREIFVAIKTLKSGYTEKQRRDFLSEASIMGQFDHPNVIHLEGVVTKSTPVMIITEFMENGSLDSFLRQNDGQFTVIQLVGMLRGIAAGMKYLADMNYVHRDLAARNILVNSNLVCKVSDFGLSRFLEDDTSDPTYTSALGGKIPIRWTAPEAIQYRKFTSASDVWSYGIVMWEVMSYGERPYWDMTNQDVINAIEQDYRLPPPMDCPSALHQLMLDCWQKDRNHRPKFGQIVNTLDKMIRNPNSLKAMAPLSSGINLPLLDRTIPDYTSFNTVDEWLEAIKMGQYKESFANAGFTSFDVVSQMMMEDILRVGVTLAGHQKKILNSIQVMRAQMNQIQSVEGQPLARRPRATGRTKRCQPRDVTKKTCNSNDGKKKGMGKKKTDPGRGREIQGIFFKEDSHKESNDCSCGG
Test: as above

Sequence	phosphorylation enrichment
CVAARYMDVKG [WFIKKN2_Y93]	0.516
KSIQLYDTPYE [SHB_Y297_G293S]	15.8
LVSCAYQMARG [FGFR1_Y605_V607M]	0.79
LNFNEYFRDLN [HPRT1_Y198_D194N_YF]	1.01
FMRGMYFRMTD [PLA2G6_Y541_K545T_YF]	0.563
HRFAAYFQQGD [GPI_Y351]	0.759
LNLKDYNLVGG [GNAQ_Y356_E355D]	0.428
FDNPVYQKTTE [LDLR_Y828]	0.497
NHYKRYNLCAE [PTEN_Y68_I67R]	0.516
DFLEKYFKFGS [NNMT_Y24_YF]	0.587
DLLNSYIENEG [HSPA4L_Y600]	0.561
KLKRSYPSPDI [USP8_Y717_S718P]	0.291
RHFSSYSQMEN [PKP1_Y120_R116H]	0.768

Test system: c-Src
Test: as above

Sequence	phosphorylation enrichment
CVAARYMDVKG [WFIKKN2_Y93]	0.313
KSIQLYDTPYE [SHB_Y297_G293S]	0.986
LVSCAYQMARG [FGFR1_Y605_V607M]	1.4
LNFNEYFRDLN [HPRT1_Y198_D194N_YF]	1.15
FMRGMYFRMTD [PLA2G6_Y541_K545T_YF]	0.481
HRFAAYFQQGD [GPI_Y351]	0.609
LNLKDYNLVGG [GNAQ_Y356_E355D]	0.482
FDNPVYQKTTE [LDLR_Y828]	0.531
NHYKRYNLCAE [PTEN_Y68_I67R]	0.508
DFLEKYFKFGS [NNMT_Y24_YF]	0.627
DLLNSYIENEG [HSPA4L_Y600]	0.343
KLKRSYPSPDI [USP8_Y717_S718P]	0.469
RHFSSYSQMEN [PKP1_Y120_R116H]	0.414
